The results in this text go back to US20030148417.

In data set [1] the target is bovine haemoglobin, P01966.
Sequence of bovine haemoglobin, P01966 (P01966 2-142, chain 1 of 2): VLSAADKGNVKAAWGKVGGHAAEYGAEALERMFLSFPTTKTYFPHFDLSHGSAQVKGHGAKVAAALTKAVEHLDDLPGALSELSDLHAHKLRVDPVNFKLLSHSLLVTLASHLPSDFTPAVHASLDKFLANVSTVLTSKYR
Sequence of bovine haemoglobin, P01966 (chain, as listed by the source, chain 2 of 2): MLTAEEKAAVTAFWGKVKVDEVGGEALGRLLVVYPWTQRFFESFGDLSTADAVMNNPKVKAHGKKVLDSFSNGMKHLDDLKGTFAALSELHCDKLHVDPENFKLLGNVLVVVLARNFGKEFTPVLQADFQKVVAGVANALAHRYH

B1: recombinant TcAP2 protein (aspartic endoproteinase from Theobroma cacao, secreted by Yarrowia lipolytica clone pCY330-33) (protein)
chain: VSNDGLVRIGLKKMKLDPNNRLAARLDSKDGEALRAFIKKYRFRNNLGDSEETDIVALKNYMDAQYYGEIGIGTPTQKFTVIFDTGSSNLWVSSTKCYFSVACYFHEKYKASDSSTYKKDGKPASIQYGTGAISGFFSYDHVQVGDLVVKDQEFIEATKEPGLTFMVAKFDGILGLGFKEISVGDAVPVWYNMIKQGLIKEPVFSFWLNRNVDEEAGGEIVFGGVDPNHYKGKHTYVPVTQKGYWQFDMGDVLIADKPTGYCAGSCAAIADSGTSLLAGPSTVITMINHAIGATGVVSQECKAVVQQYGRTIIDLLIAEAQPQKICSQIGLCTFNGAHGVSTGIESVVDESNGKSSGVLRDAMCPACEMAVVWMQNQVRQNQTQDRILSYVNELCDRVPNPMGESAVDCGSLSSMPTISFTIGGKVFDLTPEEYILKVGEGSEAQCISGFTALDIPPPRGPLWILGDIFMGRYHTVFDFGKLRVGFAEAAHHH
As for B1, the “hydrolysis of bovine haemoglobin (OPA assay, pH 3, 42 C)” value in data set [1] is recorded as 25.8±1.45 pmoles L-leucine/min/mg protein. In the data set with Pepstatin A, the “endoprotease activity (hydrolysis of bovine haemoglobin)” value was “completely inhibited by 2 µM pepstatin” and the “pepstatin insensitive activity (hydrolysis of bovine haemoglobin, 2 µM pepstatin)” value is given as 1.91±1.26 pmoles L-leucine/min/mg protein, 6.65%.
